Changes are numbered by the printed parent chain.

For test [1], the target named is G2F-Rituximab (galactosylated fucosylated glycoform of rituximab) (human). Briefly: SPR (Biacore T200), 1:1 Langmuir fit.
In test [2] the target is G2-Rituximab (galactosylated afucosylated glycoform of rituximab) (human). Briefly: SPR (Biacore T200), 1:1 Langmuir fit.
Test [3] has the same target. Nature of the test: SPR, 1:1 Langmuir global kinetic fit, 1024 to 32 nM in 2-fold steps. For orientation: Surface plasmon resonance follows binding to a sensor surface in real time, without labels.
The target is the same in test [4]. Briefly: flow cytometry of yeast displaying C11, stained with IgG1 G2 (Alexa647) and IgG1 G2F (FITC). On the technique in general: In flow cytometry, cells or beads pass a laser one at a time.
The target is the same in test [5]. Nature of the test: SPR; drawn table, KD (G2).

B1: D3 (VHH, not shown: small tags and cut ends)
VHH: QVQLQESGGGLVQAGGSLRLSCAASGNISADRYMGWYRQAPGKEREFVAAIGYGGTTYYADSVKGRFTISRDNAKNTVYLQMNSLKPEDTAVYYCAVVDGAHSRHRYWGQGTQVTVSS
B1: the values for the Kd in test [1], in test [2] and in test [3] were 1.9 µM, 0.323 µM and 0.353 µM, respectively.

B2: C11 (VHH, not shown: small tags and cut ends)
VHH: QVQLQESGGGLVQAGGSLRLSCAASGYISRYHTMGWYRQAPGKEREFVAGITWGGSTYYADSVKGRFTISRDNAKNTVYLQMNSLKPEDTAVYYCAVDGGTYADPYHYYWGQGTQVTVSS
The molecule B2 had a Kd in test [2] of 22.8 µM. The same molecule yielded a number printed in the lower right quadrant (IgG1 G2 Alexa647 positive, IgG1 G2F FITC negative) in test [4] of 4.

B3: E2 (VHH, not shown: small tags and cut ends)
VHH: B2 VHH with G26S, E46S, S56L, I69V, Y102R
The molecule B3 gave a Kd in test [5] of 4.74 µM.

B4: E4 (VHH, not shown: small tags and cut ends)
VHH: B2 VHH with G26P, G50A
On to B4, for which the dissociation constant Kd in test [5] came out at 2.48 µM.

The term Kd denotes the concentration at which binding is half-saturated. A high value points to weaker binding.

Values taken from patent US20240150494A1.
